Test results: the supplement of paper PMC10126150
± gives the standard deviation of the averaged measurements.

What follows are sequences tested on ATP (assay: switch fluorescence ratio, 500 uM ATP over buffer (Cy3 cluster intensity, sum of 5 cycles each) (fold (ratio)); higher = stronger signal-on switching upon ATP binding; sequences stand for … in TCGTCGGCAGCGTCAGATGTGTATAAGAGACAGTTTTTTTTTTTTTTTTTTTTTTTTT…TC). Settings: aptamer strand: ATP DNA aptamer (quencher-CACCTGGGGGAGTATTGCGGAGGAAGG + anchor), 100 nM annealed; ATP concentration: 500 uM.
Summary of the method: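 Cy3-labelled switching-strand clusters on a modified Illumina MiSeq flow-cell were annealed to 100 nM quencher-labelled ATP aptamer, imaged in selection buffer, then imaged after 15 min with 500 uM ATP at 22 °C. Five buffer/ATP cycles ran, with NaOH stripping and re-annealing between them. The fluorescence ratio is summed target-cycle over summed buffer-cycle Cy3 intensity per cluster, averaged per switch-domain sequence. Clusters outside 100-1000 RFU were excluded.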
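Note: ATP exposure 15 min at 22 °C before imaging.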

GCGAGTGTTT and TATGTATTTT are the same in switch fluorescence ratio: 1.02 ± 0.048 for the first, 1.02 ± 0.055 for the second.

GGATTAGG and AACACCTAGG are within error of each other in switch fluorescence ratio: 0.99 ± 0.025 for the first, 1.02 ± 0.028 for the second.

AAATGGATTT and ACCTGTGGGG are within error of each other in switch fluorescence ratio: 1.01 ± 0.085 for the first, 1 ± 0.027 for the second.

First: TGCGTTCTGG
Second: TTATTGGAGA
The switch fluorescence ratio of the first is higher: 1.048 ± 0.007 for the first, 0.996 ± 0.015 for the second.

First: ACCTGCAATT
Second: GTGTTATAGT
The switch fluorescence ratio of the first is higher: 2.96 ± 0.044 for the first, 0.993 ± 0.024 for the second.

TGGATGGGCT and CAGTGCGGCA are within error of each other in switch fluorescence ratio: 1.03 ± 0.037 for the first, 1.038 ± 0.0027 for the second.

CAGGTTGTTT and GCCAAATTGG are within error of each other in switch fluorescence ratio: 1.23 ± 0.45 for the first, 1.02 ± 0.0071 for the second.

First: CACGTGGGAG
Second: TGTTAGGGCT
The switch fluorescence ratio of the first is higher: 1.04 ± 0.023 for the first, 0.918 ± 0.021 for the second.

TCGGGCTAGC and TTTTTTTGCC are within error of each other in switch fluorescence ratio: 0.986 ± 0.012 for the first, 1 ± 0.058 for the second.

First: AGCAAATAGT
Second: GCTTGAGTTG
The switch fluorescence ratio of the first is higher: 1.28 ± 0.028 for the first, 1.0068 ± 0.0004 for the second.

Going from ATCGTCGGAT to GCCCGGGGCT, the switch fluorescence ratio rises from 0.982 ± 0.022 to 1.028 ± 0.0057.

Compared with GAAAAGGGTG, TTACGTTAAT is higher in switch fluorescence ratio: 0.99 ± 0.051 for the first, 1.18 ± 0.095 for the second.

First: AGATTTGTGG
Second: ACGTTGGACA
The switch fluorescence ratio of the first is lower: 0.9917 ± 0.0033 for the first, 1.12 ± 0.05 for the second.

Going from CCACGTCAAC to AGACCGGGGA, the switch fluorescence ratio falls from 1.59 ± 0.052 to 0.989 ± 0.033.

First: TGAGGAATTT
Second: TCGCATTCGT
The switch fluorescence ratio of the first is lower: 1 ± 0.029 for the first, 1.25 ± 0.026 for the second.

ACGTGCTCGG and GTGATCCCCG are the same in switch fluorescence ratio: 1.007 ± 0.01 for the first, 1.006 ± 0.0041 for the second.

TTTTGGATTG and ATGTTGGTGT are within error of each other in switch fluorescence ratio: 0.986 ± 0.026 for the first, 0.991 ± 0.045 for the second.

Going from ACACCGGGTC to ATGGCTATTT, the switch fluorescence ratio falls from 1.21 ± 0.071 to 0.9852 ± 0.0086.

Compared with CGGGGTAAAG, GATCGGGGAA is higher in switch fluorescence ratio: 0.9787 ± 0.0032 for the first, 1.01 ± 0.02 for the second.

CCAGGCGATT and TGTTTGCTTG are within error of each other in switch fluorescence ratio: 1.07 ± 0.095 for the first, 0.993 ± 0.021 for the second.

GGGTTCGTTC and AAAGATAACT are within error of each other in switch fluorescence ratio: 0.989 ± 0.054 for the first, 1.024 ± 0.0098 for the second.

GATCATTAGA and ACACAACTGT are within error of each other in switch fluorescence ratio: 1.05 ± 0.061 for the first, 1.14 ± 0.077 for the second.

AGGCTGTCAC and CATTGCAGTT are within error of each other in switch fluorescence ratio: 0.996 ± 0.013 for the first, 1.01 ± 0.026 for the second.

CGCTGAGGTA and GTGATGACTT are the same in switch fluorescence ratio: 1 ± 0.03 for the first, 1.001 ± 0.0061 for the second.

Going from CTATGGTTTT to GGGGACGAGT, the switch fluorescence ratio falls from 1.014 ± 0.003 to 0.99779 ± 0.00098.

First: ACATGCGTGG
Second: CGTTATTAGC
The switch fluorescence ratio of the first is lower: 0.992 ± 0.022 for the first, 1.033 ± 0.01 for the second.

GCTTCAGCAA and GGGATCGGTG are within error of each other in switch fluorescence ratio: 1.03 ± 0.055 for the first, 0.995 ± 0.016 for the second.

TAGTGATTAA and GGAGTACCGG are within error of each other in switch fluorescence ratio: 1.02 ± 0.044 for the first, 1.01 ± 0.049 for the second.

GATAGGGGGG and TAATTCTGGT are within error of each other in switch fluorescence ratio: 1 ± 0.03 for the first, 0.965 ± 0.025 for the second.

ACGATTTATC and AAAAAGAAAT are within error of each other in switch fluorescence ratio: 1.01 ± 0.016 for the first, 1.04 ± 0.021 for the second.

Compared with CAGCGAGGTC, ACCTAGTCGG is lower in switch fluorescence ratio: 1.05 ± 0.012 for the first, 1.01 ± 0.015 for the second.

ATGTTGAGTG and AGTGTGTGGA are within error of each other in switch fluorescence ratio: 0.995 ± 0.031 for the first, 1.04 ± 0.021 for the second.

TGCAAGGGTT and TAGAACAACT are within error of each other in switch fluorescence ratio: 1.12 ± 0.088 for the first, 1.21 ± 0.34 for the second.

Compared with GACGCATCTA, AGGGTGGGTT is lower in switch fluorescence ratio: 3.35 ± 0.36 for the first, 0.9771 ± 0.005 for the second.

TTCTGTCTGG and TACTCGGCCG are within error of each other in switch fluorescence ratio: 0.994 ± 0.021 for the first, 1.02 ± 0.035 for the second.

TTTTAAAGCA and TGTAATCGTT are within error of each other in switch fluorescence ratio: 1.01 ± 0.03 for the first, 0.964 ± 0.07 for the second.

CCTAGGGGGG and AGATTGCATA are within error of each other in switch fluorescence ratio: 1.17 ± 0.23 for the first, 0.994 ± 0.015 for the second.

Compared with GGGATTGGGG, GGCATCGCGA is higher in switch fluorescence ratio: 1 ± 0.012 for the first, 1.1 ± 0.064 for the second.

Going from TATGGAGAAC to ACGTGCGCAG, the switch fluorescence ratio rises from 1.01 ± 0.035 to 1.07 ± 0.018.

TTGTGGTATT and AAAGGGGAAA are within error of each other in switch fluorescence ratio: 0.99 ± 0.0084 for the first, 1 ± 0.051 for the second.

First: TTTTTGGGCG
Second: TTAACCAAGA
The switch fluorescence ratio of the first is higher: 1.01 ± 0.022 for the first, 0.9755 ± 0.0022 for the second.

First: TGCACATTCC
Second: AGTTGGGTAT
The switch fluorescence ratio of the first is higher: 1.7 ± 0.15 for the first, 1.02 ± 0.012 for the second.

AATTTCAAGG and CTAGGGGGCA are within error of each other in switch fluorescence ratio: 1 ± 0.048 for the first, 0.982 ± 0.037 for the second.

TCTTGGTA and AAGATGGGGC are within error of each other in switch fluorescence ratio: 0.959 ± 0.031 for the first, 0.998 ± 0.038 for the second.

ATGTGTCTGC and GGGAACCAAG are within error of each other in switch fluorescence ratio: 1.04 ± 0.035 for the first, 0.997 ± 0.026 for the second.

AGGGGTTTCT and AGAGTATTTG are within error of each other in switch fluorescence ratio: 0.984 ± 0.016 for the first, 0.994 ± 0.014 for the second.

AATGGCGGGT and TGAGTCAATT are within error of each other in switch fluorescence ratio: 0.996 ± 0.034 for the first, 0.99 ± 0.032 for the second.

AGGGGGAATA and CGCCGGGAGA are within error of each other in switch fluorescence ratio: 1.02 ± 0.011 for the first, 1.05 ± 0.036 for the second.

CGGATTTATA and TCGGCTTTGA are within error of each other in switch fluorescence ratio: 0.979 ± 0.019 for the first, 1.01 ± 0.03 for the second.

ACATATGGAT and TTTTAAATGA are the same in switch fluorescence ratio: 1 ± 0.015 for the first, 1 ± 0.021 for the second.

First: CTTGGGCGGA
Second: AGATGATATA
The switch fluorescence ratio of the first is higher: 1.027 ± 0.008 for the first, 0.999 ± 0.013 for the second.

First: TTCTTAAATT
Second: ACTATGGGGA
The switch fluorescence ratio of the first is lower: 0.981 ± 0.019 for the first, 1.01 ± 0.0026 for the second.

TATTACTCAG and AAAGGGGTGG are within error of each other in switch fluorescence ratio: 1.03 ± 0.025 for the first, 0.992 ± 0.043 for the second.

GCGAGGGAAC and TTTGCACCCT are the same in switch fluorescence ratio: 1.03 ± 0.015 for the first, 1.03 ± 0.041 for the second.

GGATTGGTTT and AAGGCCCCGT are within error of each other in switch fluorescence ratio: 0.983 ± 0.03 for the first, 1.02 ± 0.016 for the second.

Going from CGGACTAACG to CCTGAAAGGT, the switch fluorescence ratio falls from 1.08 ± 0.053 to 1.003 ± 0.0079.

First: TAGCACGGCA
Second: AGGTAAATTC
The switch fluorescence ratio of the first is lower: 1.06 ± 0.029 for the first, 2.33 ± 0.63 for the second.

GTGGTGAGGC and CGATACCTTT are the same in switch fluorescence ratio: 1.001 ± 0.0055 for the first, 1.003 ± 0.0086 for the second.

First: TTAAGGGCTT
Second: GTTCTTCAGA
The switch fluorescence ratio of the first is higher: 1.01 ± 0.021 for the first, 0.9705 ± 0.0056 for the second.

Compared with ACCTACCTCT, AATCGGTTGG is lower in switch fluorescence ratio: 1.48 ± 0.14 for the first, 0.966 ± 0.019 for the second.

Going from TGAGAGGGAC to TTTACAGATA, the switch fluorescence ratio falls from 1.05 ± 0.013 to 1 ± 0.018.

First: TACAGGTGCA
Second: TTCCGCGCAG
The switch fluorescence ratio of the first is higher: 1.81 ± 0.022 for the first, 1.18 ± 0.016 for the second.

TTGTGGGTGT and TTTTCACTCG are within error of each other in switch fluorescence ratio: 1.004 ± 0.0082 for the first, 1.006 ± 0.0038 for the second.

TACTTGTAAT and GGATGGTGCT are within error of each other in switch fluorescence ratio: 1.02 ± 0.055 for the first, 0.948 ± 0.027 for the second.

CATAATAACC and AGGGTAATGC are within error of each other in switch fluorescence ratio: 1.03 ± 0.018 for the first, 1.11 ± 0.09 for the second.

GGGCTATTTG and GCTGGGGACG are within error of each other in switch fluorescence ratio: 0.978 ± 0.013 for the first, 0.938 ± 0.084 for the second.

Going from GGTTTAAGGG to AGTTGGGACT, the switch fluorescence ratio rises from 0.972 ± 0.023 to 1.016 ± 0.0068.

TCGCCTGTTT and ACCAGGGGGA are within error of each other in switch fluorescence ratio: 1.003 ± 0.0036 for the first, 1.01 ± 0.023 for the second.

TGGGTAGTAA and AGTGGGGCC are within error of each other in switch fluorescence ratio: 0.993 ± 0.016 for the first, 1 ± 0.075 for the second.

First: AAGTTATATG
Second: GATAGCATTT
The switch fluorescence ratio of the first is lower: 0.987 ± 0.0099 for the first, 1.04 ± 0.039 for the second.

TGTAGCATGT and ATTGCTTTGG are within error of each other in switch fluorescence ratio: 2.08 ± 1.3 for the first, 0.9976 ± 0.0015 for the second.

TGGGGCTTCG and GATGTGTGGC are within error of each other in switch fluorescence ratio: 0.92 ± 0.077 for the first, 0.974 ± 0.022 for the second.

First: ACAGGTAAGG
Second: CCAAATGTCG
The switch fluorescence ratio of the first is higher: 1.055 ± 0.0073 for the first, 0.982 ± 0.025 for the second.

TTGGGGGTGT and AGGATCGGTC are within error of each other in switch fluorescence ratio: 1.03 ± 0.1 for the first, 1.02 ± 0.021 for the second.

GGGTGAAGGA and GAGGATCTGT are within error of each other in switch fluorescence ratio: 0.989 ± 0.042 for the first, 0.961 ± 0.023 for the second.

TTGTTAGTTG and ACAGCATGTA are within error of each other in switch fluorescence ratio: 1.01 ± 0.045 for the first, 0.9589 ± 0.0093 for the second.

CGGTAAACAC and CGTAGGAGTC are within error of each other in switch fluorescence ratio: 1.06 ± 0.047 for the first, 0.963 ± 0.15 for the second.

GGTGTACGGG and TTATAATTAT are within error of each other in switch fluorescence ratio: 0.987 ± 0.036 for the first, 1.09 ± 0.092 for the second.

With TATTTCTGTA the switch fluorescence ratio was 1.03 ± 0.019.
